Ends that are not written are not given here.

The chains are these.
B1: M-L1 (antibody, V domains shown)
VH: QVQLVQSGAEVKKPGSSVKVSCKASGGTFNSYAIHWVRQAPGQGLEWMGGIIPIFGIANYAQKFQGRVTITADESTSTAYMELSSLRSEDTAVYYCARDQYTYDYYRAFDYWGQGTLVTVSS
VL: DIVLTQSPATLSLSPGERATLSCRASQSVRDNLAWYQQKPGQAPRLLIYGASNRATGIPARFSGSGSGTDFTLTISSLEPEDFAVYYCQQYDHSPRTFGQGTKVEIKR
notes: Framework VH1A kappa 3
B2: M-L4 (antibody, V domains shown)
VH: EVQLLESGGGLVQPGGSLRLSCAASGFTFRSYAMSWVRQAPGKGLEWVSIISYDGSSTYYADSVKGRFTISRDNSKNTLYLQMNSLRAEDTAVYYCARTATSGSRGYFDYWGQGTLVTVSS
VL: DIQMTQSPSSLSASVGDRVTITCRASQDISSWLNWYQQKPGKAPKLLIFGASTLQSGVPSRFSGSGSGTDFTLTISSLQPEDFATYYCQQHYTSPVTFGQGTKVEIKR
notes: Framework VH3-23 kappa 1
B3: M-C5.2 (antibody, V domains shown)
VH: EVQLLESGGGLVQPGGSLRLSCAASGFTFSSYAVHWVRQAPGKGLEWVSVISGRGGSTYYADSVKGRFTISRDNSKNTLYLQMNSLRAEDTAVYYCARDHGYFDYWGQGTLVTVSS
VL: DIQMTQSPSSLSASVGDRVTITCRASQTISNHLGWYQQKPGKAPKLLIYTASNLQSGVPSRFSGSGSGTDFTLTISSLQPEDFATYYCQQYSHSSYTFGQGTKVEIKR
notes: Framework VH3-23 kappa 1; also called M-05.2
B4: M-C4.3 (antibody, V domains shown)
VH: QVQLVQSGAEVKKPGSSVKVSCKASGGTFSDHTISWVRQAPGQGLEWMGGIIPIVGIANYAQKFQGRVTITADESTSTAYMELSSLRSEDTAVYYCAREYYVPDSGWFDYWGQGTLVTVSS
VL: DIQMTQSPSSLSASVGDRVTITCRASQDISDYLVWYQQKPGKAPKLLIYDASNLQSGVPSRFSGSGSGTDFTLTISSLQPEDFATYYCQQYYHYRTFGQGTKVEIKR
notes: Framework VH1A kappa 1
B5: M-C4.5 (antibody, V domains shown)
VH: QVQLQQSGPGLVKPSQTLSLTCAISGDSVSSNSAAWNWIRQSPSRGLEWLGRTYYRSKWYNDYAVSVKSRITINPDTSKNQFSLQLNSVTPEDTAVYYCARSAEPSYAYYHGFDYWGQGTLVTVSS
VL: DIQLTQSPSFLSASVGDRVTITCRASQGISSYLAWYQQKPGKAPKLLIYAASTLQSGVPSRFSGSGSGTEFTLTISSLQPEDFATYYCQQRIIFPQTFGQGTKVEIKR
notes: Selected from the MorphoSys Ylanthia library; framework VH6-1
B6: M-C1 (antibody, V domains shown)
VH: EVQLLESGGGLVQPGGSLRLSCAASGFTFSSYAMNWVRQAPGKGLEWVSVISSDGSDTYYADSVKGRFTISRDNSKNTLYLQMNSLRAEDTAVYYCARESYYIGWDYWGQGTLVTVSS
VL: DIVLTQSPATLSLSPGERATLSCRASQRVSSSFLAWYQQKPGQAPRLLIYLASNRATGIPARFSGSGSGTDFTLTISSLEPEDFAVYYCLQYGHYPPTFGQGTKVEIKR
notes: Framework VH3-23 kappa 3
B7: M-C6.2 (antibody, V domains shown)
VH: QVQLVQSGAEVKKPGSSVKVSCKASGGTFSSYAISWVRQAPGQGLEWMGGIIPILGIANYAQKFQGRVTITADESTSTAYMELSSLRSEDTAVYYCARSLPYRSDLYGFSRWSYHRVGMDVWGQGTLVTVSS
VL: DIQMTQSPSSLSASVGDRVTITCRASQDISNTLNWYQQKPGKAPKLLIYAASTLQSGVPSRFSGSGSGTDFTLTISSLQPEDFATYYCQQVGSFPYTFGQGTKVEIKR
notes: Framework VH1A kappa 1
B8: M-C6.1 (antibody, V domains shown)
VH: QVQLVQSGAEVKKPGSSVKVSCKASGGTFSIYAISWVRQAPGQGLEWMGGIIPEFGTANYAQKFQGRVTITADESTSTAYMELSSLRSEDTAVYYCARSQIYTLSYPKWFDFWGQGTLVTVSS
VL: DIQMTQSPSSLSASVGDRVTITCRASQDISNYLNWYQQKPGKAPKLLIYDASNLQSGVPSRFSGSGSGTDFTLTISSLQPEDFATYYCLQYLQSPKTFGQGTKVEIKR
notes: Framework VH1A kappa 1
B9: M-C4.2 (antibody, V domains shown)
VH: EVQLLESGGGLVQPGGSLRLSCAASGFTFSSYAMHWVRQAPGKGLEWVSVISSVGSSTYYADSVKGRFTISRDNSKNTLYLQMNSLRAEDTAVYYCARGGLDVWGQGTLVTVSS
VL: DIQMTQSPSSLSASVGDRVTITCRASQDISKYLNWYQQKPGKAPKLLIYAASRLQSGVPSRFSGSGSGTDFTLTISSLQPEDFATYYCQQGDSTPFTFGQGTKVEIKR
notes: Framework VH3-23 kappa 1
B10: M-C5.1 (antibody, V domains shown)
VH: QVQLVQSGAEVKKPGSSVKVSCKASGGTFSSYAISWVRQAPGQGLEWMGGIVPIFGTANYAQKFQGRVTITADESTSTAYMELSSLRSEDTAVYYCARVRYGYWDVWGQGTLVTVSS
VL: DIQMTQSPSSLSASVGDRVTITCRASQDIANWLNWYQQKPGKAPKLLIYAASSLQSGVPSRFSGSGSGTDFTLTISSLQPEDFATYYCQQYISLPITFGQGTKVEIKR
notes: Framework VH1A kappa 1; also called M-05.1

The target in one assay is T1, Linear peptide, loop 1 of MprF (Staphylococcus aureus, added N-terminal Cysteine coupled to carrier protein BSA or transferrin; FIG. 2 legend calls it biotinylated).
T1 construct: coated as BSA or transferrin conjugate in the ELISA; also called linear loop 1 peptide
T1 peptide: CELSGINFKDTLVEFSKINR
The assay is described as follows: ELISA, IgG on the peptide used in its selection (Table 2). A general note: ELISA stands for enzyme-linked immunosorbent assay.
On to B1, for which the binding result is recorded as “binds”.

The target in a further assay is T2, Linear peptide, loop 4 of MprF (Staphylococcus aureus, also: N-terminal Cys coupled to BSA or transferrin, called biotinylated legend).
T2 construct: coated as BSA or transferrin conjugate in the ELISA; also called linear loop 4 peptide
T2 peptide: CGLGFKTLGVPEEKV
The assay is described as above.
With B2, the binding result is recorded as “binds”.

Another assay has as its target T3, MprF protein of Staphylococcus aureus (Staphylococcus aureus, UniProt Q2G2M2 1-840).
T3 construct: Presented on whole S. aureus cells (Protein A deletion mutant, delta spa; SA113 delta spa in the functional assays); also called MprF on S. aureus
T3 sequence: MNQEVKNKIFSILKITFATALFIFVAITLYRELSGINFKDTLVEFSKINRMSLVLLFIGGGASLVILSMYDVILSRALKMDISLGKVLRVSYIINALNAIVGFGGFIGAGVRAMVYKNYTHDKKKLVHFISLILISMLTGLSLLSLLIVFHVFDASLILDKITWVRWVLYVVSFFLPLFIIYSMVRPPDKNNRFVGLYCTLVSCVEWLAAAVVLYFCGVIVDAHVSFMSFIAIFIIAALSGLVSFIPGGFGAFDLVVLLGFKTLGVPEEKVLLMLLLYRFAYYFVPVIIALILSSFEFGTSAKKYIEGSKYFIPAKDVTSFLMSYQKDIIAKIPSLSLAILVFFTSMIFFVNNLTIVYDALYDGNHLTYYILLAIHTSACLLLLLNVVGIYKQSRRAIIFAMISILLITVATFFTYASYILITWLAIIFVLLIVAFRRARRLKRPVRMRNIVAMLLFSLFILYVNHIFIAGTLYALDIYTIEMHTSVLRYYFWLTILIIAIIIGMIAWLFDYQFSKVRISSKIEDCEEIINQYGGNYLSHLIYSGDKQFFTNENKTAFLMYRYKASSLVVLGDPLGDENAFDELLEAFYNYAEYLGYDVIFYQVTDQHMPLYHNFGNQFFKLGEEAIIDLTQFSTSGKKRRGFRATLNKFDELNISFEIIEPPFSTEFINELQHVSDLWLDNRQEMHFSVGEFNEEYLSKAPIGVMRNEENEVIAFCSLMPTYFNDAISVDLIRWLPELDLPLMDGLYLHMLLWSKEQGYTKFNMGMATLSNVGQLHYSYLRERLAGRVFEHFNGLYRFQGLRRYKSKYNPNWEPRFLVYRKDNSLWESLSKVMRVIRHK
The assay is described as follows: whole cell ELISA on S. aureus; E. coli as negative control.
Regarding B3, the binding result was “binds”.

In the case of B4, the binding result is “binds”.

Regarding B5, the binding result was “binds”.

In the case of B6, the binding result is “binds”.

In the case of B7, the binding result is recorded as “binds”.

On to B8, for which the binding result is given as “binds”.

Turning to B9, the binding result is on record as “binds”.

For B2, the binding result is given as “binds”.

For another assay, the target named is T3, MprF protein of Staphylococcus aureus. As to the kind of experiment: whole cell ELISA on S. aureus delta spa versus delta spa delta mprF.
For B1, the binding result is on record as “binds”.

Consider B10, for which the binding result is reported as “binds”.

(Values after US20150368323A1 (MorphoSys, published 2015).)
